From patent US20260132214A1 (JECHO LABORATORIES, published 2026)

Legend:
[1] = molecular target: T1, Glypican 3 Protein, Human, Recombinant (His Tag) (Sino Biological, Cat #10088-H08H) (human, UniProt P51654 25-559); assay: sandwich-style epitope binning, Octet AHC biosensor, 300 nM human GPC3
T1 construct: Bought recombinant protein; also called Hu-GPC3 (10088-H08H); human GPC3; not shown: His tag

[2] = molecular target: T1, Glypican 3 Protein, Human, Recombinant …; assay: Octet QKe BLI, antibody on AHC probe, antigen in solution, 1:1 fit
Cy-GPC3 (GP3-C5225) = Cy-GPC3 (GP3-C5225) (Cy (so in the source)); assay: as above
[3] = molecular target: T1, Glypican 3 Protein, Human, Recombinant …; assay: Octet QKe BLI, IgG on AHC probe, GPC3 (Sino Biological) in solution, 1:1 fit
[4] = molecular target: T2, Fc-tagged human Glypican 3 protein (Acro Biosystems, cat #GP3-H5258) (human, UniProt P51654 25-559); assay: ELISA, Fab titrated on coated Fc-tagged human GPC3, anti-Lambda HRP detection
T2 construct: Bought; also called recombinant human GPC3; not shown: Fc tag

[5] = molecular target: T3, GPC3 expressed on the cell surface of HepG2, Huh7 and Hep3B cells (human, UniProt P51654 25-554); assay: flow cytometry, Fab titrated on Hep3B cells
T3 construct: Endogenous GPC3 of human liver tumour cell lines; also called Glypican 3 protein on the cell surface; endogenously expressed GPC3
T3 sequence (P51654 25-554 limits assumed): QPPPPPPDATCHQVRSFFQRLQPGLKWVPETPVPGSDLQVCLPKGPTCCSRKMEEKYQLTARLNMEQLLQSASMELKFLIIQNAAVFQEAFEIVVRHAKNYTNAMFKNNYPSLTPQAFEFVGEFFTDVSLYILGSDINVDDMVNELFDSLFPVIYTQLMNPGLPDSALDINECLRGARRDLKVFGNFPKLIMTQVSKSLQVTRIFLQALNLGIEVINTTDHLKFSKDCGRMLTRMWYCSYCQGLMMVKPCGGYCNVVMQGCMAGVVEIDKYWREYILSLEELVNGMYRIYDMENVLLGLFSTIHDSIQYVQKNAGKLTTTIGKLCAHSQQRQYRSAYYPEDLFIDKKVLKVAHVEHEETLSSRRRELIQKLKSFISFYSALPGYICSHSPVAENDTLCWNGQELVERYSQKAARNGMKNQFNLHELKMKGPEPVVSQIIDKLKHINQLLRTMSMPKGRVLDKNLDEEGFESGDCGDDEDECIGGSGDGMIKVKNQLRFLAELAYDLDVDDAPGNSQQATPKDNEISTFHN

T2 sequence (P51654 25-559 limits assumed): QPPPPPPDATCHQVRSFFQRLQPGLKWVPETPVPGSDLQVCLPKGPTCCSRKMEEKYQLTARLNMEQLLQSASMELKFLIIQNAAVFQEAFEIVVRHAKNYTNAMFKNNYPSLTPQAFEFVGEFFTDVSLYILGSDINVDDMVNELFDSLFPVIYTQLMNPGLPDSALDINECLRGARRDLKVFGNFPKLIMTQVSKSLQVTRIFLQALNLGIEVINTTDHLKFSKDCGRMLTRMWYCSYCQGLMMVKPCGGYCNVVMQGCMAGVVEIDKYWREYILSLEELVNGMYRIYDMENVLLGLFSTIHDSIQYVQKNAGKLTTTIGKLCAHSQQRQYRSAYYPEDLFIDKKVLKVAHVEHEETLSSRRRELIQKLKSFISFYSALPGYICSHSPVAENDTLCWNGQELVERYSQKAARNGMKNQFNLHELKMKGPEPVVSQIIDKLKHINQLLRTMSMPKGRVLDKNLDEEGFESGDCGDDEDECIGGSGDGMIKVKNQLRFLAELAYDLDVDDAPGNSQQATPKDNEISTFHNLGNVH
T1 sequence (P51654 25-559 limits assumed): as above

| Binder | EC50 [4] | EC50 [5] | further results |
| --- | --- | --- | --- |
| P19 anti-GPC3 scFv-Fc (Fc fusion, scFv-Fc, human IgG1 constant regions) VH: EVQLVESGGGLVKPGGSLRLSCAASGFTFSDYYMSWIRQAPGKGLEWVSYISSSGSTIYYADSVKGRFTISRDNAKNSLYLQMNSLRAEDTAVYYCASVYMDVWGKGTTVTVSS VL: EIVMTQSPGTLSLSPGERATLSCRASQTVSSSSLAWYQQRPGQAPRLLIYETSSRATGIPDRFSGSGSGTDFTLTISRLEPEDFAIYYCQQKGDSGYTFGQGTKVEIK |  |  | binding result [1]: binds |
| P20 anti-GPC3 scFv-Fc (Fc fusion, scFv-Fc, human IgG1 constant regions; The VH as printed is the same as that of P19) VH: EVQLVESGGGLVKPGGSLRLSCAASGFTFSDYYMSWIRQAPGKGLEWVSYISSSGSTIYYADSVKGRFTISRDNAKNSLYLQMNSLRAEDTAVYYCASVYMDVWGKGTTVTVSS VL: SYELTQPPSVSVAPGQTARITCGGNNIGSKSVHWYQQKPGQAPVLVVYDDSDRPSGVPERFSGSNSGNTATLTISRVEAGDEADYYCQVWDNSSDHQVFGGGTKLTVL |  |  | Kd [2]: 100 nM |
| P3 anti-GPC3 scFv-Fc (Fc fusion, scFv-Fc, human IgG1 constant regions) VH: QVQLQQSGPGLVKPSQTLSITCAISGDSVSSNSAAWNWIRQSPSRGLEWLGRTYYRSKWYNDYAVSVKSRITINPDTSKNQFSLQLNSVTPEDTAVYYCASSYYNGGYFDYWGQGTLVTVSS VL: EIVLTQSPATLSVSPGGRATLSCRASQSVTTNLAWYQQKPGQAPRLLIYGASTRVTGVPRRFSGSGSGTDFTLTISSLQSEDSAVYYCQQYSGWGGFGGGTKVDIK |  |  | Kd (Cy-GPC3 (GP3-C5225)): 5.45 nM; Kd [2]: 20.1 nM |
| P10 anti-GPC3 scFv-Fc (Fc fusion, scFv-Fc, human IgG1 constant regions) VH: EVQLVQSGAEVKKPGSSVKVSCKASGGTFRSYAISWVRQAPGQGLEWMGGIIPIFGTANYAQKFQGRVTITADELTSTAYMELSSLRSEDTAVYYCASRIGQWPTPFDYWGQGTLVTVSS VL: QSVLTQPPSVSVAPGKTARITCGGNNIGSKSVHWYQQKPGQAPVLVIYYDSDRPSGIPERFSGSNSGNTATLTISRVEAGDEADYYCQVWDSSSDHPVFGGGTKLTVL |  |  | Kd (Cy-GPC3 (GP3-C5225)): 1.28 nM; Kd [2]: 2.85 nM |
| 71 anti-GPC3 scFv-Fc (Fc fusion, scFv-Fc, human IgG1 constant regions) VH: QVQLVESGGGVVQPGRSLRLSCAASGFTFSSYAMHWVRQAPGKGLEWVAVISYDGSNKYYADSVKGRFTISRDNSKNTLYLQMNSLRAEDTAVYYCARGGDGYNAAFDIWGQGTMVTVSS VL: NFMLTQPPSVSESPGKTVTISCTGSSGSIASNYVQWYQQRPGSAPTTVIYEDNQRPSGVPDRFSGSIDSSSNSASLTISGLKTEDEADYYCQSYDSSKHYVFGTGTKVTVL |  |  | binding result [1]: binds |
| P17 WT IgG (antibody, V domains shown, IgG) VH: not shown VL: QSVLTQPPSVSGAPGQRVTISCTGSSSGYDVHWYQQLPGRAPKLLIYGSNNRPSGVPDRFSGSNSGTSASLAITGLQAEDEADYYCQSYDSSLNAIFGGGTKLTVL |  |  | Kd [3]: 5.99 nM; koff [3]: 0.000833 s⁻¹; kon [3]: 139000 M⁻¹ s⁻¹ |
| P17-15D5 Fab (Fab, V domains shown, Fab format) VH: EVQLVESGGGLVQPGGSLRLSCAASGFTFANYAMSWVRQAPGKGLEWVSDVSASGVGTYYADSVKGRFTISRDNSKNTLYLQMNSLRAEDTAVYYCAKEVDFKLGWMHYYYGMDVWGQGTTVTVSS VL: QSVLTQPPSVSGAPGQRVTISCTGSSSGYDVHWYQQLPGRAPKLLIYGSNNRPSGVPDRFSGSNSGTSASLAITGLQAEDEADYYCQSYDSSLNAIFGGGTKLTVL | 9 ng/mL | 9.7 ng/mL |  |
| P17 WT Fab (Fab, V domains shown, Fab format, lambda light chain (detected with an anti-Lambda antibody)) VH: not shown VL: QSVLTQPPSVSGAPGQRVTISCTGSSSGYDVHWYQQLPGRAPKLLIYGSNNRPSGVPDRFSGSNSGTSASLAITGLQAEDEADYYCQSYDSSLNAIFGGGTKLTVL | 191 ng/mL | 21.3 ng/mL |  |
| P17-8E12 Fab (Fab, V domains shown, Fab format) VH: not shown VL: QSVLTQPPSVSGAPGQRVTISCTGSSSGYDVHWYQQLPGRAPKLLIYGSNNRPSGVPDRFSGSNSGTSASLAITGLQAEDEADYYCQSYDSSLNAIFGGGTKLTVL | 9.6 ng/mL | 8.3 ng/mL |  |
| P17-16A11 Fab (Fab, V domains shown, Fab format) VH: EVQLVESGGGLVQPGGSLRLSCAASGFTFDRYAMSWVRQAPGKGLEWVSSLSASGSGTYYADSVKGRFTISRDNSKNTLYLQMNSLRAEDTAVYYCAKEYDFSYGWMHYYYGMDVWGQGTTVTVSS VL: QSVLTQPPSVSGAPGQRVTISCTGSSSGYDVHWYQQLPGRAPKLLIYGSNNRPSGVPDRFSGSNSGTSASLAITGLQAEDEADYYCQSYDSSLNAIFGGGTKLTVL | 8.7 ng/mL | 8.3 ng/mL |  |
| P17-16A1 Fab (Fab, V domains shown, Fab format) VH: EVQLVESGGGLVQPGGSLRLSCAASGFTFKRYAMSWVRQAPGKGLEWVSSVSSSGTGTYYADSVKGRFTISRDNSKNTLYLQMNSLRAEDTAVYYCAKEYDYGLGWMHYYYGMDVWGQGTTVTVSS VL: QSVLTQPPSVSGAPGQRVTISCTGSSSGYDVHWYQQLPGRAPKLLIYGSNNRPSGVPDRFSGSNSGTSASLAITGLQAEDEADYYCQSYDSSLNAIFGGGTKLTVL | 9.3 ng/mL | 7.4 ng/mL |  |
| P17-13G2 Fab (Fab, V domains shown, Fab format) VH: EVQLVESGGGLVQPGGSLRLSCAASGFTFGEYAMSWVRQAPGKGLEWVSGMSGSGDGTYYADSVKGRFTISRDNSKNTLYLQMNSLRAEDTAVYYCAKEMDYQLGWMHYYYGMDVWGQGTTVTVSS VL: QSVLTQPPSVSGAPGQRVTISCTGSSSGYDVHWYQQLPGRAPKLLIYGSNNRPSGVPDRFSGSNSGTSASLAITGLQAEDEADYYCQSYDSSLNAIFGGGTKLTVL | 8.4 ng/mL | 13 ng/mL |  |
| P17-16A11 IgG (antibody, V domains shown, IgG) VH: EVQLVESGGGLVQPGGSLRLSCAASGFTFDRYAMSWVRQAPGKGLEWVSSLSASGSGTYYADSVKGRFTISRDNSKNTLYLQMNSLRAEDTAVYYCAKEYDFSYGWMHYYYGMDVWGQGTTVTVSS VL: QSVLTQPPSVSGAPGQRVTISCTGSSSGYDVHWYQQLPGRAPKLLIYGSNNRPSGVPDRFSGSNSGTSASLAITGLQAEDEADYYCQSYDSSLNAIFGGGTKLTVL |  |  | Kd [3]: 0.00103 nM; koff [3]: 1.87e-07 s⁻¹; kon [3]: 182000 M⁻¹ s⁻¹ |
| P17-13F3 Fab (Fab, V domains shown, Fab format) VH: EVQLVESGGGLVQPGGSLRLSCAASGFTFEGYAMSWVRQAPGKGLEWVSNVSGSGDGTYYADSVKGRFTISRDNSKNTLYLQMNSLRAEDTAVYYCAKEYDYKTGWMHYYYGMDVWGQGTTVTVSS VL: QSVLTQPPSVSGAPGQRVTISCTGSSSGYDVHWYQQLPGRAPKLLIYGSNNRPSGVPDRFSGSNSGTSASLAITGLQAEDEADYYCQSYDSSLNAIFGGGTKLTVL | 11.7 ng/mL | 14.8 ng/mL |  |
| P17-11F4 Fab (Fab, V domains shown, Fab format) VH: EVQLVESGGGLVQPGGSLRLSCAASGFTFKDYAMSWVRQAPGKGLEWVSALSGSGGATYYADSVKGRFTISRDNSKNTLYLQMNSLRAEDTAVYYCAKEMDFRYGWMHYYYGMDVWGQGTTVTVSS VL: QSVLTQPPSVSGAPGQRVTISCTGSSSGYDVHWYQQLPGRAPKLLIYGSNNRPSGVPDRFSGSNSGTSASLAITGLQAEDEADYYCQSYDSSLNAIFGGGTKLTVL | 9.5 ng/mL | 9.9 ng/mL |  |
| P17-15F8 Fab (Fab, V domains shown, Fab format) VH: EVQLVESGGGLVQPGGSLRLSCAASGFTFGNYAMSWVRQAPGKGLEWVSGVSGSGDGTYYADSVKGRFTISRDNSKNTLYLQMNSLRAEDTAVYYCAKEYDFGLGWMHYYYGMDVWGQGTTVTVSS VL: QSVLTQPPSVSGAPGQRVTISCTGSSSGYDVHWYQQLPGRAPKLLIYGSNNRPSGVPDRFSGSNSGTSASLAITGLQAEDEADYYCQSYDSSLNAIFGGGTKLTVL | 8.9 ng/mL | 10.4 ng/mL |  |
| P17-16E6 IgG (antibody, V domains shown, IgG) VH: EVQLVESGGGLVQPGGSLRLSCAASGFTFRKYAMSWVRQAPGKGLEWVSSLSASGSATYYADSVKGRFTISRDNSKNTLYLQMNSLRAEDTAVYYCAKEADYSMGWMHYYYGMDVWGQGTTVTVSS VL: QSVLTQPPSVSGAPGQRVTISCTGSSSGYDVHWYQQLPGRAPKLLIYGSNNRPSGVPDRFSGSNSGTSASLAITGLQAEDEADYYCQSYDSSLNAIFGGGTKLTVL |  |  | Kd [3]: 0.00133 nM; koff [3]: 2.76e-07 s⁻¹; kon [3]: 208000 M⁻¹ s⁻¹ |
| P17-16E6 Fab (Fab, V domains shown, Fab format) VH: EVQLVESGGGLVQPGGSLRLSCAASGFTFRKYAMSWVRQAPGKGLEWVSSLSASGSATYYADSVKGRFTISRDNSKNTLYLQMNSLRAEDTAVYYCAKEADYSMGWMHYYYGMDVWGQGTTVTVSS VL: QSVLTQPPSVSGAPGQRVTISCTGSSSGYDVHWYQQLPGRAPKLLIYGSNNRPSGVPDRFSGSNSGTSASLAITGLQAEDEADYYCQSYDSSLNAIFGGGTKLTVL | 9.6 ng/mL | 8.5 ng/mL |  |
| P17-16A1 IgG (antibody, V domains shown, IgG) VH: EVQLVESGGGLVQPGGSLRLSCAASGFTFKRYAMSWVRQAPGKGLEWVSSVSSSGTGTYYADSVKGRFTISRDNSKNTLYLQMNSLRAEDTAVYYCAKEYDYGLGWMHYYYGMDVWGQGTTVTVSS VL: QSVLTQPPSVSGAPGQRVTISCTGSSSGYDVHWYQQLPGRAPKLLIYGSNNRPSGVPDRFSGSNSGTSASLAITGLQAEDEADYYCQSYDSSLNAIFGGGTKLTVL |  |  | Kd [3]: 0.00117 nM; koff [3]: 2.51e-07 s⁻¹; kon [3]: 215000 M⁻¹ s⁻¹ |
